The target in this assay is CC CKR2B stably expressed on HEK-293 cells (Example 10A) (human) (UniProt P41597). The experiment in a line: cell-based or functional assay.
Sequence of CC CKR2B stably expressed on HEK-293 cells (Example 10A) (human) (P41597 whole entry): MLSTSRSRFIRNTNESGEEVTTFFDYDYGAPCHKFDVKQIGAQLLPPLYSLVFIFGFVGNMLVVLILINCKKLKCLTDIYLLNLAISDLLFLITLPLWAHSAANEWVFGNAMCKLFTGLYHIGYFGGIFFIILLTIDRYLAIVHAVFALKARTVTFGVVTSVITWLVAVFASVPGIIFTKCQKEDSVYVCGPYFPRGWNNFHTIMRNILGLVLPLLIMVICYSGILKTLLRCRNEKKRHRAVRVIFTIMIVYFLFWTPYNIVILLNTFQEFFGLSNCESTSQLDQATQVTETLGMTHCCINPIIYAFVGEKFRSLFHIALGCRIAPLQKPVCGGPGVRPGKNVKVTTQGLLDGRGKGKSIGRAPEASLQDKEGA

Sequence of recombinant human MCP-4 with the mature N-terminal Gln (PeproTech), Q99616 24-98 (ligand) (Q99616 24-98): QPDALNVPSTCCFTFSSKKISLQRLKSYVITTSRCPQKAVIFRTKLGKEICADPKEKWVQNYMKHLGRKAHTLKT

For “recombinant human MCP-4 with the mature N-terminal Gln (PeproTech), Q99616 24-98 (ligand)”, the half-maximal effective concentration of calcium flux came to 15 nM and the saturation of calcium flux response was found to be 100 nM.

The values are drawn from patent US6673915.
